Drawing on US20250092426, “CAS ENDONUCLEASES AND RELATED METHODS” (Flagship Pioneering Innovations VII, LLC, published 2025), this text covers activity for 1 molecule.

The data set addresses T1, CasEnd-6 (synthetic construct).
T1 chain: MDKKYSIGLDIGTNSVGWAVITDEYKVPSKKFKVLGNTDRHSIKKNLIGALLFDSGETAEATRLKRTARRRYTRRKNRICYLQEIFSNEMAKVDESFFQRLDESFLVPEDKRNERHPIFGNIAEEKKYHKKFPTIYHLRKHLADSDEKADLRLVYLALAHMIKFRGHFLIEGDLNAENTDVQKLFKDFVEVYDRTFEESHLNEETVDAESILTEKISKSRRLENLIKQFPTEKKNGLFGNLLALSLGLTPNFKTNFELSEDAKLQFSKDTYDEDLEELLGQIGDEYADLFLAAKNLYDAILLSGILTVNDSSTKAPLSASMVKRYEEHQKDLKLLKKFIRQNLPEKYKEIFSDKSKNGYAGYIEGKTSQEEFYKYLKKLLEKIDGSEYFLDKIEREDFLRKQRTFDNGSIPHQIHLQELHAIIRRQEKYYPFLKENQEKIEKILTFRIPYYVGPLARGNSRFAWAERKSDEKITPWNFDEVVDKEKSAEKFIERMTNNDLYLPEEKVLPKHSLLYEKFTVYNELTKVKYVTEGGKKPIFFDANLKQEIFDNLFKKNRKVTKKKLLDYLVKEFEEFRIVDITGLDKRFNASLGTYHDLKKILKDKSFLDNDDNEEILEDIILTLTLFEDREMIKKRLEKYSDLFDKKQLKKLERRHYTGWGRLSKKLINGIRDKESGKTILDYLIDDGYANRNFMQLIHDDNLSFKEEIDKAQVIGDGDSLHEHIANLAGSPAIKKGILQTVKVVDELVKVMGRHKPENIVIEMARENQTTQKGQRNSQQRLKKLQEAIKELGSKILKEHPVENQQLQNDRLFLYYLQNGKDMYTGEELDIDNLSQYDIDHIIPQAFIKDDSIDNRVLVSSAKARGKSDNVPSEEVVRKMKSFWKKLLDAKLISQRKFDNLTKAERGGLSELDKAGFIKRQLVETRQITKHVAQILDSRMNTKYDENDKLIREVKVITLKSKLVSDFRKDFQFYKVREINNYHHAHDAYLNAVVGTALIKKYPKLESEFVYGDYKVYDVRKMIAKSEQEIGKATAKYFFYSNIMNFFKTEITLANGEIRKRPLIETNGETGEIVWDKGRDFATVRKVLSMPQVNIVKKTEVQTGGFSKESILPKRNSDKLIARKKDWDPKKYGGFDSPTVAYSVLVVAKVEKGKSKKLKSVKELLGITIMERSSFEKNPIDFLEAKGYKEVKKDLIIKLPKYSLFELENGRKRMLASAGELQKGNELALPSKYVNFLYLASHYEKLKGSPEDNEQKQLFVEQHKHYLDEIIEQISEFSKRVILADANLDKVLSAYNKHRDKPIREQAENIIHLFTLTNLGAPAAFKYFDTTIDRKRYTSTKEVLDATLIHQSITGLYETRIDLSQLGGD
Briefly: cell_activity; +++; HEK293T; PAM not stated. Summed up: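 BFP-to-GFP conversion via reverse transcriptase fusion with each Cas endonuclease plus template RNA: 200 ng of each plasmid nucleofected into 250,000 BFP-expressing HEK293T cells (program DS-150). Percent GFP+ cells by flow cytometry at day 4 measured editing.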

B1: BFP-to-GFP template RNA ; BFP reporter protospacer (ssRNA ; dsDNA)
RNA: GCCGAAGCACUGCACGCCGUGUUUUAGAGCUAGAAAUAGCAAGUUAAAAUAAGGCUAGUCCGUUAUCAACUUGAAAAAGUGGCACCGAGUCGGUGCACCCUGACGUACGGCGUGCAGUGCUU
DNA 1: GCCGAAGCACTGCACGCCGT
DNA 2: ACGGCGTGCAGTGCTTCGGC
For B1, the activity is ≥ 100 % of reference.
